± gives the standard deviation of the averaged measurements.
Assay: total protein half-life in vivo (active degradation + dilution); higher = more stable protein
[1] = E. coli NCM3722 delta-clpP delta-lon delta-hslV, growth: N-lim chemostat, doubling time 6 h
[2] = E. coli NCM3722 delta-clpP, growth: N-lim chemostat, doubling time 6 h
[3] = E. coli NCM3722 delta-hslV, growth: N-lim chemostat, doubling time 6 h
[4] = E. coli NCM3722 delta-lon, growth: N-lim chemostat, doubling time 6 h
[5] = E. coli NCM3722 delta-smpB, growth: N-lim chemostat, doubling time 6 h
[6] = wild type E. coli NCM3722, growth: C-lim chemostat, doubling time 3 h
[7] = wild type E. coli NCM3722, growth: C-lim chemostat, doubling time 6 h
[8] = wild type E. coli NCM3722, growth: C-lim chemostat, doubling time 12 h
[9] = wild type E. coli NCM3722, growth: N-lim chemostat, doubling time 6 h
[10] = wild type E. coli NCM3722, growth: N-lim chemostat, doubling time 12 h
[11] = wild type E. coli NCM3722, growth: P-lim chemostat, doubling time 6 h
[12] = wild type E. coli NCM3722, growth: P-lim chemostat, doubling time 12 h

Sequence	total protein half-life in vivo [1]	total protein half-life in vivo [2]	total protein half-life in vivo [3]	total protein half-life in vivo [4]	total protein half-life in vivo [5]	total protein half-life in vivo [6]	total protein half-life in vivo [7]	total protein half-life in vivo [8]	total protein half-life in vivo [9]	total protein half-life in vivo [10]	total protein half-life in vivo [11]	total protein half-life in vivo [12]
MKKLITANDIREAHARGEQAMSVVLRASIITPEAREVADLLGFTITECDESIPVTASVPASVPADKTESQRIRETIIAQLPEGQFTESLVAQLMEKVMKEKQSLEQGAMQPSFKSVTGKGGIKVIDGSSVKFGRFDGAEPHCVGLTDLVTGDDGSSMAAGFMQWENAFFPWTLNYDEIDMVLEGELHVRHEGQTMIAKAGDVMFIPKGSSIEFGTTSSVKFLYVAWPANWQSL	5.08 ± 0.37 h	1.62 h	1.44 ± 0.19 h	2.42 ± 0.052 h	1.55 ± 0.36 h	2.12 ± 0.14 h	4.18 ± 0.51 h	5.42 ± 1.1 h	1.84 h	2.19 h	2.44 h	3.93 h
METRREERIGQLLQELKRSDKLHLKDAAALLGVSEMTIRRDLNNHSAPVVLLGGYIVLEPRSASHYLLSDQKSRLVEEKRRAAKLAATLVEPDQTLFFDCGTTTPWIIEAIDNEIPFTAVCYSLNTFLALKEKPHCRAFLCGGEFHASNAIFKPIDFQQTLNNFCPDIAFYSAAGVHVSKGATCFNLEELPVKHWAMSMAQKHVLVVDHSKFGKVRPARMGDLKRFDIVVSDCCPEDEYVKYAQTQRIKLMY [P0ACK5]	6.81 ± 0.62 h	6.08 ± 0.73 h	6.59 ± 0.9 h	6.9 ± 1.5 h	5.02 ± 0.12 h	2.74 h	6.23 ± 0.15 h	9.99 ± 0.58 h	5.81 ± 0.078 h	10.57 ± 0.023 h	5.99 ± 0.49 h	–
MGNTSIQTQSYRAVDKDAGQSRSYIIPFALLCSLFFLWAVANNLNDILLPQFQQAFTLTNFQAGLIQSAFYFGYFIIPIPAGILMKKLSYKAGIITGLFLYALGAALFWPAAEIMNYTLFLVGLFIIAAGLGCLETAANPFVTVLGPESSGHFRLNLAQTFNSFGAIIAVVFGQSLILSNVPHQSQDVLDKMSPEQLSAYKHSLVLSVQTPYMIIVAIVLLVALLIMLTKFPALQSDNHSDAKQGSFSASLSRLARIRHWRWAVLAQFCYVGAQTACWSYLIRYAVEEIPGMTAGFAANYLTGTMVCFFIGRFTGTWLISRFAPHKVLAAYALIAMALCLISAFAGGHVGLIALTLCSAFMSIQYPTIFSLGIKNLGQDTKYGSSFIVMTIIGGGIVTPVMGFVSDAAGNIPTAELIPALCFAVIFIFARFRSQTATN	–	–	–	–	–	–	3.02 h	4.27 ± 0.49 h	–	–	–	–
MANWLNQLQSLLGQSSSSTSSSADQGLVKLLVPGALGGLAGLLVANKSARKLLTKYGTNALLVGGGAVAGTVLWNKYKDKIRAAHQDEPQFGAQSTPLDERTARLILALVFAAKSDGHIDAKERAAIDQQLRGAGVEEQGRVLIEQAIEQPLDPQRLATGVRNEEEALEIYFLSCAAIDIDHFMERSYLNALGDALKIPQDVRDGIERDLEQQKRTLAE	5.293 ± 0.0053 h	–	3.74 ± 0.12 h	3.56 ± 0.13 h	4.47 ± 0.86 h	2.22 ± 0.19 h	4.49 ± 0.37 h	9.68 ± 3.4 h	4.91 ± 1.6 h	8.34 ± 0.38 h	3.34 ± 0.58 h	5.708 ± 0.041 h
MKRAPLITGLLLISTSCAYASSGGCGADSTSGATNYSSVVDDVTVNQTDNVTGREFTSATLSSTNWQYACSCSAGKAVKLVYMVSPVLTTTGHQTGYYKLNDSLDIKTTLQANDIPGLTTDQVVSVNTRFTQIKNNTVYSAATQTGVCQGDTSRYGPVNIGANTTFTLYVTKPFLGSMTIPKTDIAVIKGAWVDGMGSPSTGDFHDLVKLSIQGNLTAPQSCKINQGDVIKVNFGFINGQKFTTRNAMPDGFTPVDFDITYDCGDTSKIKNSLQMRIDGTTGVVDQYNLVARRRSSDNVPDVGIRIENLGGGVANIPFQNGILPVDPSGHGTVNMRAWPVNLVGGELETGKFQGTATITVIVR	–	5.21 h	6.04 ± 0.24 h	–	–	3.66 h	6.25 ± 0.34 h	11.5 h	5.8 h	14 h	5.42 h	13.3 h
MLSKQIPLGIYEKALPAGECWLERLQLAKTLGFDFVEMSVDETDDRLSRLNWSREQRLALVNAIVETGVRVPSMCLSAHRRFPLGSEDDAVRAQGLEIMRKAIQFAQDVGIRVIQLAGYDVYYQEANNETRRRFRDGLKESVEMASRAQVTLAMEIMDYPLMSSISKALGYAHYLNNPWFQLYPDIGNLSAWDNDVQMELQAGIGHIVAVHVKDTKPGVFKNVPFGEGVVDFERCFETLKQSGYCGPYLIEMWSETAEDPAAEVAKARDWVKARMAKAGMVEAA	5.97 h	–	–	–	–	–	–	–	–	–	–	–
MKKYQQLAEQLREQIASGIWQPGDRLPSLRDQVALSGMSFMTVSHAYQLLESQGYIIARPQSGYYVAPQAIKMPKAPVIPVTRDEAVDINTYIFDMLQASRDPSVVPFASAFPDPRLFPLQQLNRSLAQVSKTATAMSVIENLPPGNAELRQAIARRYALQGITISPDEIVITAGALEALNLSLQAVTEPGDWVIVENPCFYGALQALERLRLKALSVATDVKEGIDLQALELALQEYPVKACWLMTNSQNPLGFTLTPQKKAQLVALLNQYNVTLIEDDVYSELYFGREKPLPAKAWDRHDGVLHCSSFSKCLVPGFRIGWVAAGKHARKIQRLQLMSTLSTSSPMQLALVDYLSTRRYDAHLRRLRRQLAERKQRAWQALLRYLPAEVKIHHNDSGYFLWLELPEPLDAGELSLAALTHHISIAPGKMFSTGENWSRFFRFNTAWQWGEREEQAVKQLGKLIQERL	5.76 ± 0.15 h	6.15 ± 0.15 h	6.01 ± 0.29 h	6.09 ± 0.51 h	5.54 ± 0.38 h	3.02 ± 0.075 h	5.42 ± 0.59 h	10.5 ± 0.68 h	5.45 ± 0.55 h	13.1 ± 2.8 h	6.52 ± 0.27 h	14.3 ± 2.1 h
MKKVTAMLFSMAVGLNAVSMAAKAKASEEQETDVLLIGGGIMSATLGTYLRELEPEWSMTMVERLEGVAQESSNGWNNAGTGHSALMELNYTPQNADGSISIEKAVAINEAFQISRQFWAHQVERGVLRTPRSFINTVPHMSFVWGEDNVNFLRARYAALQQSSLFRGMRYSEDHAQIKEWAPLVMEGRDPQQKVAATRTEIGTDVNYGEITRQLIASLQKKSNFSLQLSSEVRALKRNDDNTWTVTVADLKNGTAQNIRAKFVFIGAGGAALKLLQESGIPEAKDYAGFPVGGQFLVSENPDVVNHHLAKVYGKASVGAPPMSVPHIDTRVLDGKRVVLFGPFATFSTKFLKNGSLWDLMSSTTTSNVMPMMHVGLDNFDLVKYLVSQVMLSEEDRFEALKEYYPQAKKEDWRLWQAGQRVQIIKRDAEKGGVLRLGTEVVSDQQGTIAALLGASPGASTAAPIMLNLLEKVFGDRVSSPQWQATLKAIVPSYGRKLNGDVAATERELQYTSEVLGLNYDKPQAADSTPKPQLKPQPVQKEVADIAL	3.81 ± 0.31 h	2.29 ± 0.29 h	1.1 ± 0.013 h	0.95 h	1.15 ± 0.2 h	–	–	–	1.19 ± 0.58 h	1.46 ± 0.27 h	–	–
MLQIVGALILLIAGFAILRLLFRALISTASALAGLILLCLFGPALLAGYITERITRLFHIRWLAGVFLTIAGMIISFMWGLDGKHIALEAHTFDSVKFILTTALAGGLLAVPLQIKNIQQNGITPEDISKEINGYYCCFYTAFFLMACSACAPLIALQYDISPSLMWWGGLLYWLAALVTLLWAASQIQALKKLTCAISQTLEEQPVLNSKSWLTSLQNDYSLPDSLTERIWLTLISQRISRGELREFELADGNWLLNNAWYERNMAGFNEQLKENLSFTPDELKTLFRNRLNLSPEANDDFLDRCLDGGDWYPFSEGRRFVSFHHVDELRICASCGLTEVHHAPENHKPDPEWYCSSLCRETETLCQEIYERPYNSFISDATANGLILMKLPETWSTNEKMFASGGQGHGFAAERGNHIVDRVRLKNARILGDNNARNGADRLVSGTEIQTKYCSTAARSVGAAFDGQNGQYRYMGNNGPMQLEVPRDQYAGAVETMRNKIREGKVEER	–	0.668 h	–	–	–	–	–	–	–	0.674 h	–	2.58 ± 0.79 h

Source: the supplement of paper PMC11246515
